The source of these data is PMC3391105.

Test [1] concerns the target soluble mouse FcRn, GST-tagged (mFcRn heavy chain ectodomains with human β2-microglobulin) (mouse | human) (UniProt Q61559). The test is described as follows: SPR. Background: SPR reads the build-up and loss of mass on a sensor chip optically.
Test [2] addresses soluble human FcRn, GST-tagged (hFcRn heavy chain ectodomains with human β2-microglobulin) (human) (UniProt P55899). The experiment in a line: SPR.
Sequence of UniProt P55899 (P55899 24-297, chain 1 of 2): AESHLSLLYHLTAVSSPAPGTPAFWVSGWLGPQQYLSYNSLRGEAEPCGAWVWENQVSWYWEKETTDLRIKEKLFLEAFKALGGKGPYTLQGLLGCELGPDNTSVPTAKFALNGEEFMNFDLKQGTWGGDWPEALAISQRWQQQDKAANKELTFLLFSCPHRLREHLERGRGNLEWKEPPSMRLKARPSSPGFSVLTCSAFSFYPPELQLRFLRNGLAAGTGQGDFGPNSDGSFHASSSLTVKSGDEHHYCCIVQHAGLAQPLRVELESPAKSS
Sequence of UniProt P55899 (P61769 21-119, chain 2 of 2, further chain): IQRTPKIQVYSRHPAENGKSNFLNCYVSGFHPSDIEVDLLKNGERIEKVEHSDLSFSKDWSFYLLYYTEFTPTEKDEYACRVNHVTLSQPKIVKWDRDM

Sequence of UniProt Q61559 (Q61559 22-297, chain 1 of 2): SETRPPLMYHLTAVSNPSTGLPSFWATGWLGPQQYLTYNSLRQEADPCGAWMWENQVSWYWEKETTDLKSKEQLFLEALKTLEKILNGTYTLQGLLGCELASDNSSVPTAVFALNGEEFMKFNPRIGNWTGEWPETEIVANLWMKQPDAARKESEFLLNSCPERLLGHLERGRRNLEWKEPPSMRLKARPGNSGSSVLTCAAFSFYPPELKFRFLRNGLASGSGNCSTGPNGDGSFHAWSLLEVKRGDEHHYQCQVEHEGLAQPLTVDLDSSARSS
Sequence of UniProt Q61559 (P61769 21-119, chain 2 of 2, further chain): as the sequence (P61769 21-119, chain 2 of 2, further chain) above

In test [1], “anti-CEA cT84.66 scFv-Fc H435Q (Fc fusion)” gave a KD1 (heterogeneous ligand model) of 80.9 nM and a KD2 (heterogeneous ligand model) of 400 nM.

In test [2], “anti-CEA cT84.66 scFv-Fc H435R (Fc fusion)” displayed a KD1 (heterogeneous ligand model) of 9.4 nM and a KD2 (heterogeneous ligand model) of 197 nM. In test [1], this substance registered a KD1 (heterogeneous ligand model) of 1.8 nM and a KD2 (heterogeneous ligand model) of 122 nM.

“anti-CEA cT84.66 scFv-Fc WT (nonmutated) (Fc fusion)”: the KD2 (heterogeneous ligand model) in test [1] amounted to 43.8 nM.
